Experimental data taken from patent US9200265B2, “Anti-cocaine compositions and treatment” (priority 2006, dated 2015).
Read-outs that look alike come from different tables or passages of the source.

Key:
[1] = Thermal stability: preincubation at 37° C., activity measured at RT (25° C.); assay type: physicochemical; details: wild type
Description: Thermally stable mutant CocE polypeptides were identified by determining 1/2 of the mutant CocE polypeptides. Briefly, enzymes were preincubated at 37° C. for varying times. Activity measurements were determined at RT (25° C.). Mutant enzymes with 1/2 of greater than 12 minutes (the 1/2 of wild type CocE) were considered thermally stable (See, e.g., FIG. 27 and Table 7).

[2] = Melting temperature by circular dichroism (near-UV); assay type: physicochemical
Description: Plasmids containing the mutations were transformed into E. coli BL21 cells and IPTG-induced enzyme was purified on Ni-Agarose. Expressed proteins were then tested for enzymatic activity and for thermostability at 37° C. Enzyme activity was measured using the spectrophotometric assay as described in Example 1. Thermostability was also tested via the spectrophotometric assay by pre-incubation of both wild-type and mutants at 37° C. for various times. Additionally, the nature of the thermo-instability of both the wild-type and T172R mutant was analyzed by polyacrylamide gel electrophoresis under denaturing and non-denaturing conditions. Briefly, mutant and wild-type enzyme at 0.1 mg/ml were incubated at 37° C. for various time-points, cooled to 4° C., mixed with SDS-loading dye containing-mercaptoethanol and run on 10% SDS-PAGE gels (denaturing conditions) or run on native 10% polyacrylamide gels (non-denaturing conditions) at 4° C. Gels were fixed with 10% methanol, 7% acetic acid for 30 minutes, and then stained with Sypro-Ruby protein gel stain (Molecular Probes, Invitrogen) for 3 hours. Protein staining was visualized under UV-light using an AlphaImager™ 3400 (Alpha Innotech). Finally, the exact melting temperature of both the wild-type and T172R mutant were determined by circular dichroism using a JASCO-810 spectropolarimeter driven by a JASCO V500/FP-750 analysis program for Windows. The CD spectra were measured in millidegrees and normalized against PBS buffer.

[3] = test system: cocaine-induced lethality; test: Cocaine toxicity in mice, incl. repeated CocE doses; assay type: in vivo, mouse
Excerpt: The animal toxicity model was similar to that described previously, except as described. Male NIH Swiss mice were used. For tail intravenous injection, mice are placed in a small restraint chamber that exposes their tail. A heat lamp with an infrared, 250 w bulb is placed about 4 inches from the tail, and left for a couple of minutes. The tail is then cleansed with an alcohol wipe and a 30 G ½ precision glide needle (Fisher Scientific), is inserted into one of the side veins for infusion. To verify whether the needle is in the vein a small amount of drug is infused, if in the correct location the solution should infuse easily without any indication of an incorrect subcutaneous location, which appears white at the site of injection. For intravenous catheterization, Male NIH Swiss mice are anesthetized with ketamine 100 mg/kg and xylazine 10 mg/kg co-administered i.p. When mice are no longer responsive to paw pressure, the neck is shaved and prepped by alternating Betadine and alcohol wipes. Under clean conditions, a right transverse neck incision is made and the external jugular vein is isolated. A catheter is inserted into the vein with the aid of a dissecting microscope to the level of the right atrium, and is secured in the vein with nylon, 4-0 sutures and tissue adhesive, 3M Vetbond (3M Animal Care Products, St. Paul, Minn.). The catheters are a short length of Tygon tubing with an inner diameter of 0.010 in. and an outer diameter of 0.030 in. (Small Parts, Inc., Miami Lakes, Fla.). A small incision is made in the middle of the animal's back, and a trocar inserted subcutaneously to exit at the ventral incision site. The catheter is then pulled through the trocar and brought out the animal's back where it is held in place with nylon suture material and the tissue adhesive. A short piece of steel wire with a diameter of 0.011 in. (Small Parts, Inc., Miami Lakes, Fla.) is inserted into the end of the catheter. The ventral incision is closed with 4-0 Vicryl suture material and the mouse placed under a heat lamp for recovery. Approximately an hour later, the mouse is returned to its home cage.
Mice that survived a first administration of the combination of 0.32 mg CocE and 320 mg/kg cocaine were given this combination again, 14 days following the initial administration.

[4] = test system: CocE antibodies; test: Direct ELISA specific for CocE antibodies in serum of mice; assay type: in vivo, mouse
Description: CocE can be used in incomplete Freund's adjuvant (IFA) to immunize mice (see Table 4). A direct ELISA specific for CocE antibodies was set up by a standard protocol. CocE was used (1 ug/ml) to coat a 96-well micro-titer plate using a borate buffered saline (1.5 M NaCl, 0.5 M H3BO3, 1.0 M NaOH) to resuspend the cocaine esterase (50 uL/well). The coating plates was left overnight at 4 C. The coating buffer was removed the following morning and the plates blocked with 2% normal goat serum in PBS for 1 hr at 37 C and washed 3 times. Serum from the various groups of mice was serially diluted in 50 μL of PBS in the wells in a range of 10^2 to […] and run in duplicate. The plates were covered and incubated for 30 minutes at 37 C. Subsequently, the plates were washed 3 times and 50 μL/well of Goat anti-mouse IgG peroxidase labeled antibody diluted 1:400. The plates were then washed 3 times and 100 μL peroxidase substrate solution (OPD dissolved in citratelphosphate buffer) was added to each well. After a 5-10 minute incubation (based upon color development in the positive controls) the reaction was stopped using 3M H2SO4 (50 μL/well). […] Positive controls were derived by immunizing Balb/c mice with 100 μg in 100 μL of Cocaine esterase emulsified in incomplete Freund's adjuvant […] by intraperitoneal (IP) injection. In Positive 1 group the serum was isolated from 2 week immunized mice. In Positive 2 group immunized mice were boosted using 100 μg in 100 μL by IP injection at 2 weeks post-primary immunization and the serum collected after an additional week (3 week post-primary).

[5] = cited from earlier work
[6] = Ex vivo cocaine degradation by CocE in human plasma (HPLC tandem MS)
[7] = Time-dependent inactivation of CocE in vitro (incubation at temperature, then activity)

B1: CocE: wild-type cocaine esterase of Rhodococcus sp. MB 1, SEQ ID NO: 1, Accession No. AF173165 (protein)
chain: MVDGNYSVASNVMVPMRDGVRLAVDLYRPDADGPVPVLLVRNPYDKFDVFAWSTQSTNWLEFVRDGYAVVIQDTRGLFASEGEFVPHVDDEADAEDTLSWILEQAWCDGNVGMFGVSYLGVTQWQAAVSGVGGLKAIAPSMASADLYRAPWYGPGGALSVEALLGWSALIGTGLITSRSDARPEDAADFVQLAAILNDVAGAASVTPLAEQPLLGRLIPWVIDQVVDHPDNDESWQSISLFERLGGLATPALITAGWYDGFVGESLRTFVAVKDNADARLVVGPWSHSNLTGRNADRKFGIAATYPIQEATTMHKAFFDRHLRGETDALAGVPKVRLFVMGIDEWRDETDWPLPDTAYTPFYLGGSGAANTSTGGGTLSTSISGTESADTYLYDPADPVPSLGGTLLFHNGDNGPADQRPIHDRDDVLCYSTEVLTDPVEVTGTVSARLFVSSSAVDTDFTAKLVDVFPDGRAIALCDGIVRMRYRETLVNPTLIEAGEIYEVAIDMLATSNVFLPGHRIMVQVSSSNFPKYDRNSNTGGVIAREQLEEMCTAVNRIHRGPEHPSHIVLPIIKR
modifications: Rhodococcus sp. MB1
- 1/2 (t1/2) at 37° C. [1]: 12 min
- detectable denaturation beginning ([2]; near-UV CD): approximately 30 °C
- melting temperature ([2]; near-UV CD (260-320 nm), curve-fitting): 36.15 °C
- survival on second administration ([3]; 0.32 mg CocE and 320 mg/kg cocaine, 14 days following the initial administration): All of the mice survived
- survival on third administration ([3]; 0.32 mg CocE and 320 mg/kg cocaine, 21 days following the first dose): All mice also survived
- time to death (average) ([3]; 1.0 gm/kg cocaine plus 1.0 mg of CocE, mice): 28 min
- shift in the potency of cocaine in producing death ([3]; both 0.32 and 1.O 'mg/kg cocaine' as printed, mice): dramatic shift to the right
- Titer (log10 dilution +/− SE) ([4]; Challenged and Treated (3x), CocE given with cocaine): 3.33 +/− 0.333
- Titer (log10 dilution +/− SE) ([4]; Challenged and Treated (4x), CocE given with cocaine): 3.5 +/− 0.5
- antibody titers ([4]; CocE i.v. during cocaine challenges): detectable but relatively low titers
- antibody titer ([4]; CocE/IFA with an additional boost): 10^6
- Titer (log10 dilution +/− SE) ([4]; Positive 1 (n = 3) 2 weeks, Immunized (IFA/IP)): 5
- Titer (log10 dilution +/− SE) ([4]; Positive 2 (n = 3) 3 weeks, Immunized/Boost (IFA/IP)): 6
- antibody titer ([4]; immunized once with CocE/IFA): 10^5
- Kcat ([5]; against (-) cocaine): 7.8 s⁻¹
- Km ([5]; against (-) cocaine): 0.64 µM
- Km ([5]; purified enzyme, cocaine): 0.64 µM
- kcal (Michaelis-Menten kinetics) ([5]; purified enzyme, cocaine): 7.2 s⁻¹
- decrease of cocaine levels compared with vehicle-treated plasma ([6]; human plasma 37° C., 300 μM cocaine, 0.05 mg/ml CocE, within 1 min): at least 100 fold
- cocaine level after esterase ([6]; human plasma 37° C., 300 μM cocaine, 2-minute timepoint): below 1 microM
- cocaine concentration after esterase ([6]; human plasma 37° C., 300 μM cocaine, within 1 min): approximately 2 μM
- cocaine concentrations in serum metabolized ([6]; in less than one minute (FIG. 15)): 150 fold
- t1/2 of CocE ([7]; at 4° C.): greater than 6 months
- t1/2 of CocE ([7]; at 37° C.): approximately 15 minutes
